{
  "source": "patent US20060068468A1",
  "about": "(ACCELERON PHARMA, published 2006)",
  "binders": {"B1": {"name": "ActRIIB-Fc +15tail (Fc fusion)", "chain": "SGRGEAETRECIYYNANWELERTNQSGLERCEGEQDKRLHCYASWANSSGTIELVKKGCWLDDFNCYDRQECVATEENPQVYFCCCEGNFCNERFTHLPEAGGPEVTYEPPPTAPTGGGTHTCPPCPAPELLGGPSVFLFPPKPKDTLMISRTPEVTCVVVDVSHEDPEVKFNWYVDGVEVHNAKTKPREEQYNSTYRVVSVLTVLHQDWLNGKEYKCKVSNKALPVPIEKTISKAKGQPREPQVYTLPPSREEMTKNQVSLTCLVKGFYPSDIAVEWESNGQPENNYKTTPPVLDSDGSFFLYSKLTVDKSRWQQGNVFSCSVMHEALHNHYTQKSLSLSPGK", "notes": "also called ActRIIB-Fc with the C-terminal 15 amino acids of the extracellular domain"}, "B2": {"name": "background ActRIIB-Fc fusion, WT (64A) (Fc fusion)", "chain": "SGRGEAETRECIYYNANWELERTNQSGLERCEGEQDKRLHCYASWANSSGTIELVKKGCWLDDFNCYDRQECVATEENPQVYFCCCEGNFCNERFTHLPEAGGGTHTCPPCPAPELLGGPSVFLFPPKPKDTLMISRTPEVTCVVVDVSHEDPEVKFNWYVDGVEVHNAKTKPREEQYNSTYRVVSVLTVLHQDWLNGKEYKCKVSNKALPVPIEKTISKAKGQPREPQVYTLPPSREEMTKNQVSLTCLVKGFYPSDIAVEWESNGQPENNYKTTPPVLDSDGSFFLYSKLTVDKSRWQQGNVFSCSVMHEALHNHYTQKSLSLSPGK", "notes": "Made in HEK293T or CHO cells and purified on protein A; also called wild-type (background A64) ActRIIB-Fc; background A64 construct"}, "B3": {"name": "ActRIIB-Fc R40A (Fc fusion)", "chain": "B2 chain with R22A", "notes": "Mutation in the background ActRIIB-Fc"}, "B4": {"name": "ActRIIB-Fc K74I (Fc fusion)", "chain": "B2 chain with K56I", "notes": "as for B3"}, "B5": {"name": "ActRIIB-Fc F82A (Fc fusion)", "chain": "B2 chain with F64A", "notes": "as for B3"}, "B6": {"name": "ActRIIB-Fc K74F (Fc fusion)", "chain": "B2 chain with K56F", "notes": "as for B3"}, "B7": {"name": "ActRIIB-Fc K74Y (Fc fusion)", "chain": "B2 chain with K56Y", "notes": "as for B3"}, "B8": {"name": "ActRIIB-Fc D80I (Fc fusion)", "chain": "B2 chain with D62I", "notes": "as for B3"}, "B9": {"name": "ActRIIB-Fc K74A (Fc fusion)", "chain": "B2 chain with K56A", "notes": "as for B3"}, "B10": {"name": "ActRIIB-Fc WT (64R) (Fc fusion)", "chain": "B2 chain with A46R", "notes": "also called A64R"}, "B11": {"name": "ActRIIB-Fc D54A (Fc fusion)", "chain": "B2 chain with D36A", "notes": "as for B3"}, "B12": {"name": "ActRIIB-Fc L79A (Fc fusion)", "chain": "B2 chain with L61A", "notes": "as for B3"}, "B13": {"name": "ActRIIB-Fc E37A (Fc fusion)", "chain": "B2 chain with E19A", "notes": "as for B3"}, "B14": {"name": "ActRIIB-Fc D80A (Fc fusion)", "chain": "B2 chain with D62A", "notes": "as for B3"}, "B15": {"name": "ActRIIB-Fc D80R (Fc fusion)", "chain": "B2 chain with D62R", "notes": "as for B3"}, "B16": {"name": "ActRIIB-Fc R56A (Fc fusion)", "chain": "B2 chain with R38A", "notes": "as for B3"}, "B17": {"name": "ActRIIB-Fc W78A (Fc fusion)", "chain": "B2 chain with W60A", "notes": "as for B3"}, "B18": {"name": "ActRIIB-Fc K55A (Fc fusion)", "chain": "B2 chain with K37A", "notes": "as for B3"}, "B19": {"name": "ActRIIB-Fc D80M (Fc fusion)", "chain": "B2 chain with D62M", "notes": "as for B3"}, "B20": {"name": "ActRIIB-Fc D80G (Fc fusion)", "chain": "B2 chain with D62G", "notes": "as for B3"}, "B21": {"name": "ActRIIB-Fc D80K (Fc fusion)", "chain": "B2 chain with D62K", "notes": "as for B3"}, "B22": {"name": "ActRIIB-Fc D80F (Fc fusion)", "chain": "B2 chain with D62F", "notes": "as for B3"}, "B23": {"name": "ActRIIB-Fc D80N (Fc fusion)", "chain": "B2 chain with D62N", "notes": "as for B3"}},
  "note": "Changes are numbered by the printed parent chain. In names and notes the source's numbering stands.",
  "data": [
    {"target": "T1, GDF-11 (UniProt O95390 299-407)", "T1 construct": "also called Growth and Differentiation Factor-11; BMP11", "T1 sequence (looked up)": "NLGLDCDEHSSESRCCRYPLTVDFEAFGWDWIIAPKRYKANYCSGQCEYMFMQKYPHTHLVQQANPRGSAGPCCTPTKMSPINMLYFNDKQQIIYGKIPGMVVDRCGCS", "experiment": "BiaCore (SPR); ligand amine-coupled to CM5 chip, ActRIIB-Fc injected", "protocol": "(§1) GDF-11 or Activin A (“ActA”) were immobilized on a BiaCore CM5 chip using standard amine coupling procedure. The ActRIIB-Fc mutant or wild-type protein was loaded onto the system, and binding was measured.", "units": {"Kd": "nM"}, "values": [
      {"binder": "B1", "Kd": 19},
      {"binder": "B2", "Kd": 260},
      {"binder": "B3", "binding result": "binds"},
      {"binder": "B4", "binding result": "binds"},
      {"binder": "B5", "binding result": "binds"},
      {"binder": "B6", "binding result": "binds"},
      {"binder": "B7", "binding result": "binds"},
      {"binder": "B8", "binding result": "binds"},
      {"binder": "B9", "Kd": 5.3},
      {"binder": "B10", "Kd": 86}
    ]},
    {"target": "T2, Activin A (UniProt P08476 311-426)", "T2 construct": "also called ActA", "T2 sequence (looked up)": "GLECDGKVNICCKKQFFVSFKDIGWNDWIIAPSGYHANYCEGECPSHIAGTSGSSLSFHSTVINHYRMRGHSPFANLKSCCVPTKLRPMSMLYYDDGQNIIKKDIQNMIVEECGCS", "experiment": "BiaCore (SPR); ligand amine-coupled to CM5 chip, ActRIIB-Fc injected", "protocol": "as §1", "units": {"Kd": "nM"}, "values": [
      {"binder": "B1", "Kd": "~26"},
      {"binder": "B2", "Kd": 180},
      {"binder": "B3", "binding result": "binds"},
      {"binder": "B11", "binding result": "binds"},
      {"binder": "B9", "Kd": 4.35},
      {"binder": "B12", "binding result": "binds"}
    ]},
    {"target": "T1, GDF-11", "experiment": "BiaCore, ligand immobilized on CM5 chip", "protocol": "as §1", "values": [
      {"binder": "B13", "binding result": "no binding"},
      {"binder": "B14", "binding result": "no binding"},
      {"binder": "B15", "binding result": "no binding"},
      {"binder": "B16", "binding result": "no binding"},
      {"binder": "B11", "binding result": "no binding"},
      {"binder": "B17", "binding result": "no binding"},
      {"binder": "B18", "binding result": "no binding"},
      {"binder": "B19", "binding result": "no binding"},
      {"binder": "B12", "binding result": "no binding"},
      {"binder": "B20", "binding result": "no binding"},
      {"binder": "B21", "binding result": "no binding"},
      {"binder": "B22", "binding result": "no binding"},
      {"binder": "B23", "binding result": "no binding"}
    ]},
    {"target": "T2, Activin A", "experiment": "BiaCore, ligand immobilized on CM5 chip", "protocol": "as §1", "values": [
      {"binder": "B13", "binding result": "no binding"},
      {"binder": "B14", "binding result": "no binding"},
      {"binder": "B15", "binding result": "no binding"},
      {"binder": "B4", "binding result": "no binding"},
      {"binder": "B16", "binding result": "no binding"},
      {"binder": "B6", "binding result": "no binding"},
      {"binder": "B17", "binding result": "no binding"},
      {"binder": "B7", "binding result": "no binding"},
      {"binder": "B8", "binding result": "no binding"},
      {"binder": "B19", "binding result": "no binding"},
      {"binder": "B20", "binding result": "no binding"},
      {"binder": "B21", "binding result": "no binding"},
      {"binder": "B22", "binding result": "no binding"},
      {"binder": "B23", "binding result": "no binding"}
    ]}
  ]
}
